T1: H-NS (Escherichia coli, UniProt P0ACF8)
T1 chain: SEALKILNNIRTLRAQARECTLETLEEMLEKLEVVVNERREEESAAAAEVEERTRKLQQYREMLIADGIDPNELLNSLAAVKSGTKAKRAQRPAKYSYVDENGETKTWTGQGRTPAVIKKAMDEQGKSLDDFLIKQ


Legend:
H-NS = molecular target: T1, H-NS; test: fluorescence anisotropy
Cnu (E. coli) [1] = test: other fluorescence titration; ~2 uM Cnu with ~30 nM to ~140 uM H-NS; W67 emission on excitation at 295 nm, intensity-averaged wavenumber; Hill fit; apparent; 500 mM ionic strength, sodium phosphate pH 8.0; temperatures from 5 to 37 °C
Cnu (E. coli) [2] = test: other fluorescence titration; ~2 uM Cnu with ~30 nM to ~140 uM H-NS; W67 emission on excitation at 295 nm, intensity-averaged wavenumber; Hill fit; apparent; 170 mM ionic strength, sodium phosphate pH 8.0; temperatures from 5 to 37 °C
[3] = molecular target: H-NSW, variant of H-NS with a tryptophan at its C-terminus (E. coli) (UniProt P0ACF8); test: fluorescence polarisation; steady-state tryptophan anisotropy; 2 uM H-NSW with ~30 nM to ~140 uM H-NS (tyrosine variant); excitation 295 nm; 170 mM ionic strength, 5 °C and 37 °C; apparent; fit to monomer-dimer (1:1) equilibrium

Row | Kd (H-NS) [µM] | K1/2 (Cnu (E. coli) [1]) [µM] | fold increase in affinity against 500 mM IS (Cnu (E. coli) [2]) [fold] | Kd [3] [µM] | minimum oligomerization concentration [3] [µM] | Binder
1 | ~125 | – | – | – | – | Cnu (protein) MTVQDYLLKFRKISSLESLEKLYDHLNYTLTDDQELINMYRAADHRRAELVSGGRLFDLGQVPKSVWHYVQ
2 | – | 100 | 4 | 100 to 150 | 10 | H-NS (residues 1-59 of the N-terminal domain), the tyrosine variant (domain or fragment) MSEALKILNNIRTLRAQARESTLETLEEMLEKLEVVVNERREEESAAAAEVEERTRKLY
